In paper PMC5691656 (Viruses, 2017):
No end group written: not given here.

T1: Canarypox virus CNP058 lacking the C-terminal transmembrane domain (residues 1–143) (canarypox virus, UniProt Q6VZT9 1-143)
T1 sequence: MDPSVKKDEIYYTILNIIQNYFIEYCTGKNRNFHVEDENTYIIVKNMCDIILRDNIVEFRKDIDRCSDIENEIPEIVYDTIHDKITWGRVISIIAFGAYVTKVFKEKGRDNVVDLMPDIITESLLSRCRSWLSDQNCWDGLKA

B1: Gallus gallus Noxa BH3 domain peptide (peptide)
peptide: ERDAVAECALELRRIGDKADLQQKVL
notes: Noxa, Gallus gallus, BH3 domain peptide; source: synthetic peptide (Mimotopes)

Columns and labels:
Noxa BH3 (Homo sapiens) = Noxa BH3 (Homo sapiens) (UniProt Q13794); assay: ITC; conditions: cited from earlier work
CNP058 = CNP058 (Canarypox virus, UniProt Q6VZT9); assay: biochemical; assay type: binding
[1] = target: T1, Canarypox virus CNP058 lacking the …; assay: ITC; conditions: both partners purified

Sequence of Noxa BH3 (Homo sapiens) (Q13794 18-43): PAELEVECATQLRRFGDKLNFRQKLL

Row | Molecule | Kd [1] [nM] | also measured
1 | FPV039 (from UniProt Q9J5G4) | – | Kd (Noxa BH3 (Homo sapiens)): 28 nM
2 | PEVNEAIVRTIAAQLAEIGDQLDKQIKAKVVNDL [GG_Bid] | – | Kd (CNP058): 50 nM
3 | B1 | 3280 | –
4 | EARTEVQIARKLQCIADQFHRLHIQR [Gallus gallus Bmf BH3 domain peptide (residues 135-160)] | 294 | –
5 | VPQDASTKKLSECLKRIGDELDSNMELQ [Homo sapiens Bax BH3 domain peptide (residues 50-77)] | 326 | –
6 | EEQWAREIGAQLRRMADDLNAQYERR [Homo sapiens Puma BH3 domain peptide (residues 130-155)] | 2480 | –
7 | PEVNEAIVRTIAAQLAEIGDQLDKQIKAKVVNDL [Gallus gallus Bid BH3 domain peptide (residues 77-110)] | 50 | –
